In PMC6716676, “Chemokine signaling links cell-cycle progression and cilia formation for left–right symmetry breaking” (PLoS Biology, 2019):
Residue numbers refer to the chain shown, from its start. In names and notes the source's numbering stands. Blank lines part the entries; values can stand above or below the molecule they belong to.

Experiments:
[1] = molecular target: zFoxj1a (zebrafish Foxj1a) (UniProt F1QDF8); assay: co-IP of Flag- and HA-tagged zFoxj1a; conditions: reference: wild type (both tagged copies); sites T102
[2] = molecular target: the molecule itself; assay: native gel or EMSA; whole-cell lysates of HEK293T cells with overexpressed Flag-tagged zFoxj1a or its mutants separated on SDS- and native PAGEs

binding against the reference [1]: weaker
Molecule: zFoxj1a (zebrafish Foxj1a) (from UniProt F1QDF8) T102A (both tagged copies)

B1: Flag-zFoxj1a (zebrafish forkhead box j1a) (natural protein, UniProt F1QDF8 1-458, looked up)
chain: MLSMSSMDPWPEGSVGLEEEVVTAAAQAERLDTSTPLQCNTSLDSDNLDDSLTSLQWLQEFSILNASTGQHTSPSSHSHLMGSDAPSSPLAGDPASIGMPLTPGKPTAASFCRVPMFSALPSLVAHGHCPDEVDYKSNPHIKPPYSYATLICMAMQASKKTKITLSCIYKWITDNFCYFRHADPTWQNSIRHNLSLNKCFIKVPRQKDEPGKGGFWKIDPQYAERLLNGAYKKRRLPPVQINPALQHRLRMNAQATGVISRNLSVSPESQQLLKDFEEATSADQNWDPRLAEATMLSCWISGKGTNKRKQPYNHRTGKTPRRSSSPLLVMDEQEDLSSLRGNFDWDALLDSALNGELSLNEGSPLSPTPQDEELMIRGTHISPQEAPVENHVLMETQRSGDEDFDEETFLATAFLQSPWSEVDESNRSDFLGSSTVSIDQLFDLSFGGDLSSKIETLL
notes: forkhead box j1a (Foxj1a), zebrafish; In the self-association co-IP the second copy carried an HA tag instead of Flag (HA-zFoxj1a); also called Flag-tagged zFoxj1a; wild-type zFoxj1a; source: HEK293T, transfected, in lysate
stoichiometry N [2]: 2

B2: Flag-zFoxj1a-T102D (natural protein, zebrafish, UniProt F1QDF8 1-458, looked up)
chain: B1 chain with T102D
notes: forkhead box j1a (Foxj1a), zebrafish; In the self-association co-IP the second copy was differently tagged (HA); also called phospho-mimicking mutant of zFoxj1a; T102D mutant; source: HEK293T, transfected, in lysate
stoichiometry N [2]: 2
